Source: publication doi:10.1101/2022.03.31.486616

Biological target: E. cloacae Cap2 (C109A/C548A), catalytically dead (E. cloacae)
Test: cryo-EM structure

E. cloacae Cap2 (C109A/C548A), catalytically dead (enzyme)
stoichiometry N: 2
